The source of these data is patent US20230242902A1, “A HIGHLY ERROR-PRONE […] R[…] FOR TARGETED CONTINUOUS EVOLUTION IN VIVO” (The Regents of the University of California, priority 2017, published 2023).

Series [1] can be described thus: Maximum soluble concentration in media. In kind it is physicochemical. Conditions: yeast culture media, aqueous buffer.
The subject of series [2] is p1-encoded leu2 (Q180*). As to the kind of experiment: qPCR measurement of p1-encoded leu2 (Q180*) copy number. Particulars: qPCR-determined p1 copy number, OR-Y24 strains. In kind it is cell-based, S. cerevisiae. The protocol: A calibration curve was established to correlate p1 copy number, determined via quantitative PCR (qPCR), with fluorescence of p1-encoded mKate2 (Table 1). Five TP-DNAP1 variants representing a wide range of copy numbers were transformed into ORY24 and passaged until w.t. p1 was displaced. The five OR-Y24 strains were grown to saturation, diluted 1:10,000 to mimic p1 fluctuation tests, and grown in triplicate 100 μL cultures and duplicate 40 mL cultures. 100 μL saturated cultures were subject to fluorescence measurement of mKate2 (ex/em=561 nm/620 nm, bandwidth=15 nm) on a flow cytometer (Invitrogen Attune NxT). Whole-cell DNA extracts were prepared from 40 mL cultures and used as templates for qPCR measurement of p1-encoded leu2 (Q180*), as described previously (Ravikumar et al., 2014). p1-encoded LEU2 was PCR amplified with qPCR-Leu2F and qPCR Leu2R; and genomic LEU3 was PCR amplified with qPCR-Leu3F and qPCR-Leu3R using SyBR Green (Fisher Scientific) master mix.

The next series concerns p1-encoded leu2*. As to the kind of experiment: p1 leu2* fluctuation tests in AR-Y304 (p1 mutation rate reporter strain, mutual orthogonality). The class given is cell-based, S. cerevisiae. Particulars: AR-Y304, polymerase in trans. An excerpt: Strains for testing mutual orthogonality were generated by transforming a panel of CEN6/ARS4 vectors encoding TP-DNAP1 or TP-DNAP2 variants into two base strains, AR-Y304 and GA-Y021. AR-Y304 (Ravikumar et al., 2014, Nature Chemical Biology, 10:175-177) contains recombinant p1 encoding mKate2, URA3 and leu2* without disturbing the native TP-DNAP1 ORF. Similarly, GA-Y021 encodes recombinant p2 that replaces ORF1 with mKate2, URA3 and leu2* without disturbing the native TP-DNAP2 ORF.
To precisely measure p1 and p2 per-base substitution mutation rates, several modifications were made to the small-scale protocol. First, 36 replicates were performed for reconfirmation of candidate TP-DNAP2 mutators, and 48 replicates for genomic and mutual orthogonality experiments. Titers were also determined for each strain after spot plating by pooling the residual volume from 4 replicates and plating dilutions on YPD. The expected number of LEU2 functional mutants (m) was determined by the Ma-Sandri-Sarkar maximum likelihood estimator (as calculated by the FALCOR tool and corrected for partial plating (Foster, 2006, Methods Enzymol, 409:195-213; Sarkar et al., 1992, Genetica, 85:173-179; Hall et al., 2009, Bioinformatics, 25:1564-1565). The mean mKate2 fluorescence was determined from 50,000 event counts on Attune™ NxT Flow Cytometer and converted to p2 copy number by using a calibration curve. To determine per-base substitution rates, the corrected m was normalized to the average cell titer, the p2 copy number, and the target size for functional leu2* reversion (2.33 bp). 95% confidence intervals were similarly scaled.
To test whether the replication mechanisms of p1 and p2 are mutually orthogonal in vivo, p1 and p2 mutation rates were measured in the presence of a panel of TP-DNAP1 and TP-DNAP2 variants with varying mutation rates. Changes in p1 or p2 mutation rate induced by TP-DNAP variants would therefore signal a degree of cross-replication between TP-DNAP1/p1 and TP-DNAP2/p2, if any. A panel of six polymerases was introduced on CEN6/ARS4 vectors into two separate base strains, AR-Y304 (p1 mutation rate reporter strain) and GA-Y021 (p2 mutation rate reporter strain), encoding mKate2, URA3, and leu2* on either p1 or p2, respectively. Included in this panel were TP-DNAP1^WT and two error-prone TP-DNAP1 variants found in previous screens: TP-DNAP1^1777K, L900S and TP-DNAP1^L477V, L640Y, I777K, W814N. Also included were TP-DNAP2^WT and the error-prone TP-DNAP2^S370Q and TP-DNAP2^Y424Q variants found in this work. In AR-Y304 and GA-Y021, both p1 and p2 still encode their native wt TP-DNAP's. Any contribution to replication by a third TP-DNAP encoded in trans is monitored by detecting changes in linear plasmid mutation rate. Importantly, these experiments afford each DNAP an opportunity to replicate its native plasmid and lose its attached TP, becoming “spent” and perhaps more likely to replicate its noncognate linear plasmid through DNAP exchange (Klassen and Meinhardt, 2007, Linear Protein-Primed Replicating Plasmids in Eukaryotic Microbes, in Microbial Linear Plasmids, pp 1 87-226. Springer, Berlin, Heidelberg). The presence of TP-DNAP1^WT or TP-DNAP2^WT in trans had no effect on their noncognate linear plasmids' mutation rate. […] Likewise, p1 mutation rate was unaltered in the presence of mutagenic TP-DNAP2^S370Q and TP-DNAP2^Y424Q, which increased p2 mutation rate by 29- and 16-fold, respectively (FIG. 9). Thus, TP-DNAP1 replicates p1 with at least 870-fold specificity over p2, while TP-DNAP2 targets p2 with at least 29-fold specificity over p1. The level of mutual orthogonality measured here is limited by the error-rates of DNAPs used, especially that of TP-DNAP2 variants.

For a further series, the system named is p2-encoded leu2*. As to the kind of experiment: p2 leu2* fluctuation tests in GA-Y021 (p2 mutation rate reporter strain). In kind it is cell-based, S. cerevisiae. Particulars: GA-Y021, noncognate polymerase in trans, mutual orthogonality experiment. In outline:
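Yeast GA-Y021 carrying wt TP-DNAP2 plus variants in trans; replicate cultures grown 48 h at 30° C in pH 5.8 SC dropout, spot-plated on leucine-free medium, colonies counted after 5 days. m by p0 method (six replicates) or Ma-Sandri-Sarkar MLE (36–48 replicates), normalized to titer, p2 copy number (mKate2) and 2.33 bp target.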

Series [3] has as its system p1-encoded leu2 (Q180*). As to the kind of experiment: Large-scale p1 fluctuation tests of p1-encoded leu2 (Q180*), per-base substitution rate. Particulars: per-base substitution rate, p1-encoded leu2 (Q180*), large-scale fluctuation test. The class given is cell-based, S. cerevisiae. The method, boiled down: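 Yeast OR-Y24 carrying p1-encoded leu2 (Q180*) with individual TP-DNAP1 variants; 36-48 replicates (3-16 for highly error-prone variants), LEU2 revertants scored without leucine. Rates by maximum likelihood, normalized to cells per culture, p1 copy number (flow cytometry) and 2.33 reversion routes.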

A further series has as its system genomic URA3 gene. As to the kind of experiment: Fluctuation tests of the genomic URA3 gene in the presence of TP-DNAP1 variants. In kind it is cell-based, S. cerevisiae. Particulars: URA3 locus, strain harbouring p1 and the TP-DNAP1 variant. The protocol:
Fluctuation tests of the genomic URA3 gene were performed to determine genomic per-base substitution rates, as previously described (Ravikumar et al., 2014). Fluctuation data were analyzed by the maximum likelihood method, as described for large-scale p1 fluctuation tests. Phenotypic mutation rates were divided by the target size for loss of function of URA3 via base pair substitution (Lang et al., 2008), to yield per-base substitution rates. 95% confidence intervals were similarly scaled by these factors. All data related to genomic URA3 fluctuation tests are fully described in Table 5.

Substitutions are numbered along the chain they refer to. Numbers in names are those of the source. ≈ marks a conversion by molar mass, not a printed value. Where “and” joins values, the source holds several entries; their conditions need not be identical. Equal values may be shown once.

In series [1], `CCc1nc(N)nc(N)c1-c1ccc(Cl)cc1` [pyrimethamine] had a solubility of 3000 µM (≈ 746 µg/mL).

B1: I777K, L900S: TP-DNAP1 variant, encoded by SEQ ID NO:7 (protein, listed as Kluyveromyces lactis)
chain: MDYKDKALNDLRNVYADFDSLPLDFRQILIKDRATLLQKEDVEKKILERQEDAKKYAEYLKQSEIPERISLPNIKRHKGVSISFEETSEDMVLEPRPFIFDGLNIRCFRRETIFSLKNKILNMVKESSSFKNVSRQSVSFMYFKIFNKGKVIASTKSVNIYEDKIDERLEDLCNNFDDVLKKIIDVTYGYESLFVSETYSYVIFYAKSIYFPQPRCVNNWGNNIPNILTFDSFKLFTANKNNVSCIKQCSRFLWQKDFNTLEEMIEYKNGNICIVTPQLHINDVRDIKSFNDIRLYSESPIKTFSVIDNTITYLFYFKEHLGVIFNITKSRHDRRVTKFSPLSKFSDVKNITVCFDIESYFDPEKESNQVNIPFICCASIIYNKVIGNIVDFEGRDCVAQMIEYVVDICGELNISSVELIAHNGGGYDFHYILSSMYNPAAIKNILIRNNSFISFNFAHDGVKFSVKDSYSFLLCSLANASKAFLNEETFKKTDFPHHDLKTADDLYKVYKEWSSVNTEINHVVEKEKLLITSEHIVNFTKNDKSKTLIEWSKDYCRNDVLVLSKVWLEFKNAVEDIFNCELVDQTMTLAGLSYKLFQANMPFDVELRHPNKEDYFNMREALIGGRCISVNGIYKDVLCLDVKSLYPASMAFYDQPYGSFKRVSSRPKDELGIYYVRVTPNRNNKSNFFPIRSHNKITYNNFEESTYIAWYTNVDIDIGLSEGHNIEYIPFDSYGNIGYSWSKKGKIFEKYIKDVLYKLKIKYEKQNNKVKRNVIKKIMNSLWGKFAQKWVNFEYFIKSEDDIDFESEEAYKIWDTDFMLIKKIKESTYSSKPIQNGVFTLSWARYHMKSIWDAGAKEGAECIYSDTDSIFVHKEHFKKNAKFMLNGLKVPIIGSEVGQSELECEFDKLLCAGKKQYMGFYTYFQDGKPCIKEKKRFKGIPSNYIIPELYAHLLSGADKEAKIQFLKFRREWGSVKGYIENKTVKAT
For B1, the “Average leu2 (Q180*) copy number per cell” value (from here on “Average leu2 … per cell”) in the series with p1-encoded leu2 (Q180*) [2] was 22.5 and 38.6. Also, the “fold increase of p1 mutation rate” value in the series on p1-encoded leu2* was 380 fold. Further, the “change in p2 mutation rate by TP-DNAP1” value in the series on p2-encoded leu2* is on record as “no statistically significant change”.

B2: I777K: TP-DNAP1 variant, encoded by SEQ ID NO:3 (protein)
chain: B1 chain with S900L
On to B2, for which the “Average leu2 … per cell” value in the series on p1-encoded leu2 (Q180*) [2] is 45.8 and 54.1.

B3: L474W, L640Y, I777K, W814N: TP-DNAP1 variant, encoded by SEQ ID NO:9 (protein, listed as Kluyveromyces lactis)
chain: B1 chain with L474W, L640Y, W814N, S900L
In the case of B3, the “Average leu2 … per cell” value with p1-encoded leu2 (Q180*) [2] (L640Y, I777K) is 8.63 and 11.1. The “Mutation rate (s.p.b.)” value in the series on p1-encoded leu2 (Q180*) [3] was 4.03 × 10^−6 s.p.b. and 2.74 × 10^−6 s.p.b. Further, the “Yeast genomic substitution mutation rate” value with genomic URA3 gene is reported as 2.17 × 10^−10 s.p.b.
